The text below walks through data of patent publication US6638508B2, “Modified avidin-type molecules as targeting agents for the liver and cells of the reticuloendothelial system” (Yeda Research and Development Co., Ltd., priority 1995, dated 2003).

A short description of series [1]: Pt content in organs by flame atomic absorption spectrometry after CDDP complexed to BT1-CMdex-TNP-St or free CDDP. To be noted: 2 h following injection of 300 μg free CDDP. The series is classed as in vivo, mice. Here is the method:
Pharmacokinetic studies confirmed the assumption of sustained release and prolonged maintenance of the complexed drug, as compared to the rapid elimination and inactivation of the free drug (Schechter et al., 1989a). Complexing CDDP to BT1-CMdex: BT1-CMdex (T-40) (0.15mM) was reacted with CDDP in DDW at a molar ratio of 1:60 for 24 h at 37° C. Following dialysis, the resulting BT1-CMdex-Pt contained 23-27 CDDP/CMdex. The complex BT1-CMdex-CDDP was reacted with TNP-St (at a ratio of 4:1) for targeting to the liver. […] To show the actual targeting of CDDP to the liver, CDDP was quantitatively determined in organs obtained at set time intervals following injection of 185 μg CDDP complexed to BT1-CMdex-TNP-St. Blood and organs were blended in an Ika Werk Ultra-Turrax blender (Jankel&Kunkel KG) in 5×Vol/tissue weight of 0.1N NaOH for 30 seconds. After centrifugation, the supernatants were filtered through Minisart 5 μm filter and the Pt content in the samples was determined by flame atomic absorption spectrometry (AA) at 265.9 nm in air-acetylene flame (in a Perkin Elmer 5100 PC spectrophotometer). Standards were prepared in a solution with matrix identical to that of the samples (i.e., normal tissues), to account for possible matrix interference. Results are expressed as %/g, i/organ or μg/organ in individual mice.

Series [2] is described as follows: [3H] radioactivity in tissue extracts after BT1-CMdex-FUR ([3H]-uridine) alone or complexed to TNP-St. The settings on record: 1 and 4 h. The series is classed as in vivo, mice. The protocol: The actual targeting of FUR to the liver was carried out by a BT1-CMdex (T-40)-FUR product in which FUR was trace-labeled with [^3H] uridine. Mice were injected with BT1-CMdex-FUR-([^3H]-uridine) alone or complexed to TNP-St and at set time intervals blood was withdrawn, organs were dissected out and weighed. Tissue extracts were prepared by blending blood and organs in an Ika Werk Ultra-Turrax blender in 5× vol (ml)/tissue weight (g) of 0.1N NaOH for 30 sec. After centrifugation, 50 μl samples were counted for [^3H] radioactivity. Results are expressed as %/g tissue or %/organ. As shown in FIGS. 11A and 11B, levels of untargeted BT1-CMdex-FUR ([^3H]-uridine) were low. […] Radioactivity levels in other organs were in the range of 5%/g tissue or less than 1%/organ (FIG. 11B). It can be calculated that upon injection of 200μg TNP-St as a vehicle for BT1-CMdex-FUR, 25 μg of the drug can be accumulated per gram liver.

Series [3] in a line: Biodistribution of radioiodinated (125I) proteins, modified avidin-type molecules and their complexes after i.v. injection. The protocol:
(ii) Animals. Age-matched CD-1 male mice (6-12 weeks old) were used in the experiments.
(iii) Biodistribution experiments. Groups of age-(6-12 weeks) and weight-matched male CD-1 mice were given intravenous (i.v.) injections into the lateral tail vein of radioiodinated ^125I-TNP- or ^125I-lactosylated-St (most biodistribution experiments were done in the range of 1-10 μg protein, 1 mCi of ^125I) into the lateral tail vein. At the time intervals indicated, blood samples were withdrawn from the tail, the mice were killed and their organs were dissected out, washed in PBS, blotted dry, weighed and counted for radioactivity. […] In subsequent experiments, CD-1 male mice were used and the results are presented as %/g or %/organ for single a single mouse or %/g ±SD or %/organ ±SD for pairs of mice unless otherwise stated.
(ii) Radioiodination. Proteins (0.2 mg/0.2ml) in 0.2M phosphate buffer pH 8.0 were reacted for 2 min with Na^125I (0.5 mCi for biodistribution experiment and 2.5mCi for external monitoring) in the presence of Chloramine-T (2mg/ml, 10 or 100 μl) in PBS for 2 min. The reaction, which facilitates attachment of the radioactive iodine to tyrosines, was terminated by the addition of sodium metabisulfite (2mg/ml, 10 or 100 μl) in PBS for 2 min followed by the addition of potassium iodide and carrier BSA (1 mg of each/0.1 ml PBS). The radioiodinated proteins ^125I-TNP-proteins were then chromatographed on Sephadex G-25 in PBS. TNP modification can take place before or after radioiodination. Avidin and TNP-Av, being low in tyrosine content (molar ratio of 4 tyrosine/avidin as compared to 24 tyrosine/streptavidin), were radiolabeled by ^125I-biotinyl-tyrosine as described below in Example 6.

Series [4] can be described thus: Toxicity studies: liver histology, body weight and survival. It counts as in vivo, CD-1 mice. To be noted: dose of 300 μg, observed for 4 months.
The conditions of series [5]: mouse, in vivo; cited from earlier work.

As to `N.N.[Cl][Pt][Cl]` [CDDP, cis-dichlorodiamine platinum (cisplatin)], in series [1], the “Pt in liver or other organs” value was “essentially no Pt could be found”.

As to `O=c1[nH]c(=O)n([C@@H]2O[C@H](CO)[C@@H](O)[C@H]2O)cc1F` [FUR, 5-fluorouridine], in series [2], the “tissue levels of free drug” value is “around 1 %/g tissue”.

Consider “DTPA-Gd substituted St: Gd-DTPA derivative of streptavidin”, for which the liver accumulation result in series [3] (liver, 24 h, FIG. 16) was “did not accumulate in the liver”.

For the molecule “Lac-St: lactosylated streptavidin, molar substitution ratio 5:1”, the “non-hepatic values, fold lower than St or TNP-St” value in series [3] (mouse, in vivo) is recorded as 10-20 fold.

Take “TNP-Av: avidin modified with 2,4,6-trinitrophenyl (TNP) groups”: in series [3] (mouse, in vivo), the “accumulation in the liver” value is recorded as 30-40 %/g and the “accumulation in the spleen” value is on record as 10-15 %/g. In addition, in series [4], the “effect on body weight or survival” value is on record as “did not seem to affect”.

For the molecule “TNP-NL-Av: TNP-modified NeutraLite Avidin, a deglycosylated form of avidin”, the “accumulation in the spleen” value in series [3] (mouse, in vivo) is reported as “up to 20 %/g”.

With “^125I-BT-St: radioiodinated biotinyl-tyrosine complexed to unmodified streptavidin”, in series [3] (mouse, in vivo), the “accumulation in whole kidney, % of injected dose of radioactivity/organ” value was 10%.

On to “^125I-BT-TNP-St: radioiodinated biotinyl-tyrosine complexed to TNP-streptavidin”, for which, in series [3] (mouse, in vivo), the “accumulation in whole liver, % of injected dose of radioactivity/organ” value is 66-68%.

Consider streptavidin, for which, in series [3] (mouse, in vivo), the “accumulation in the kidney” value is on record as 70-80%; the blood levels is listed as 22-33 %/g; the “levels in other tissues, including the liver” value is listed as below 10 %/g. In series [5], the “% of the total injected dose accumulated in each kidney” value is listed as 15% and the “levels in other organs” value is given as 0.3-4 %/g.
